The values that follow come from patent publication JP2015180231A.

The target of the assay is RSV融合(F)タンパク質 (RSV fusion (F) protein), on RSV-infected HEp2 cells (respiratory syncytial virus (RSV)) (UniProt P03420). Kind of assay: cell-based or functional assay.
Chain of UniProt P03420 (P03420 26-574): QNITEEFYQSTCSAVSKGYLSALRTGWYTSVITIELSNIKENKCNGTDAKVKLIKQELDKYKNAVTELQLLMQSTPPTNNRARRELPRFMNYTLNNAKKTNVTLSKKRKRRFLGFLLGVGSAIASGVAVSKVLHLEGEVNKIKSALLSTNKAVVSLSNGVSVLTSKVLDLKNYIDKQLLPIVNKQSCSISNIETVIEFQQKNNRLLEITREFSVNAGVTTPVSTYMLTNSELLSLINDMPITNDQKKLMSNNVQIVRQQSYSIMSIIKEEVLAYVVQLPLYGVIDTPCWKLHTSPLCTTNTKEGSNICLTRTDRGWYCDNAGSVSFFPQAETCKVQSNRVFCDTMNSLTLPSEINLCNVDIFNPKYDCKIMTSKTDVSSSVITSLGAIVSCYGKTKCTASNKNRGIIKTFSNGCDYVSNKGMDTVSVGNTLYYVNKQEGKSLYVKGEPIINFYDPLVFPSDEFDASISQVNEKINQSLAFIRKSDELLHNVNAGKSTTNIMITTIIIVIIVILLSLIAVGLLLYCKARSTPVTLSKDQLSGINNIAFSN

The substance “抗RSV抗体D25 (anti-RSV monoclonal antibody D25)” showed an RSV-A2ウイルスに対して最大活性の半分を阻害する濃度(IC50) (microneutralisation) of 2.1 ng/mL.
